From article PMC4530586, “STIL binding to Polo-box 3 of PLK4 regulates centriole duplication” (eLife, 2015)

Target: T1, human PLK4-PB3 (884–970), recombinant (human, UniProt O00444 884-970)
T1 construct: PLK4, human, residues 884–970 (Polo-box 3); isotope-labelled (2H, 15N, 13C) samples were used for NMR; also called Polo-box 3; source: E. coli BL21 DE3, purified (nickel resin, TEV cleavage, Superdex75 SEC); not shown: thioredoxin, N-terminal, cleaved; His6, N-terminal, cleaved
T1 sequence (looked up): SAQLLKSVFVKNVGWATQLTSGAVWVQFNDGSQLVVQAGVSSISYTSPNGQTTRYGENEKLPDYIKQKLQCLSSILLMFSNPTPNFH
Assay: ITC; synthetic STIL-CC peptide (414 µM) titrated into recombinant PB3 (35.5 µM); 50 mM Hepes pH 8.0, 150 mM NaCl, 1 mM TCEP; 25°C; 30 injections of 10 µl; one-site binding model
Conditions: both partners purified

B1: synthetic STIL-CC peptide (peptide, UniProt Q15468 720-751, looked up)
peptide: PDAYRFLTEQDRQLRLLQAQIQRLLEAQSLMP
notes: also called synthetic peptide corresponding to STIL-CC; source: synthetic peptide
B1 was tested, and the Kd was 280 ± 60 nM and the “stoichiometry N” value was 1.
